T1: yeast GPA1 (yeast) (UniProt P08539)
T1 sequence (looked up): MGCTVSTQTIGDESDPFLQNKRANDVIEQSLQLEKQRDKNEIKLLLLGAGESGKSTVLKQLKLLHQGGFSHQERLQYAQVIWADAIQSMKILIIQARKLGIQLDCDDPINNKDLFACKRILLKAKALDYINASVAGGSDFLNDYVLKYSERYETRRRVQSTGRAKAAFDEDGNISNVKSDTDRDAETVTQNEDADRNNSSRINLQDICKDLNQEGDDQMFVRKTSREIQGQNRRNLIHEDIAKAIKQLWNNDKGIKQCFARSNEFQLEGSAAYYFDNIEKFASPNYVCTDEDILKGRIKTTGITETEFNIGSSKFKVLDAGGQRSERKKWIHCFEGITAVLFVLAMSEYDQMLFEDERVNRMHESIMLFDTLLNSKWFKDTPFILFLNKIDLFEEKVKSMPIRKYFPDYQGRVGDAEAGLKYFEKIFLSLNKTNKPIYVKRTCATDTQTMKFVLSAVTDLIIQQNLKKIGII


What was measured:
Assay in all cases: cell-based or functional assay
[1] = target: human His6-Gαi2 (expressed in Sf9 cells) (human) (UniProt P04899)
Sequence of human His6-Gαi2 (expressed in Sf9 cells) (human) (P04899 whole entry, the tested form may be a part): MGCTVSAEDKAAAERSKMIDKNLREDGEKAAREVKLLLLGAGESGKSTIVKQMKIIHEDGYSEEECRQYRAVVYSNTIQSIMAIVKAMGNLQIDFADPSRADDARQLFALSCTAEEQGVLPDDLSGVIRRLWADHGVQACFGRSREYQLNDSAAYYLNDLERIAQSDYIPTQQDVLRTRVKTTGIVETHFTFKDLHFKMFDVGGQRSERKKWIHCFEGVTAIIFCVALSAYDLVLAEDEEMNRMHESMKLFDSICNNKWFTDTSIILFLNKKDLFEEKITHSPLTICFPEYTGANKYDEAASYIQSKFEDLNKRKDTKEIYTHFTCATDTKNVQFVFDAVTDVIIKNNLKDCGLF

[2] = target: GPA1(1-41)-Gα16(S270P) (GPA1-human Gα16 fusion construct) (yeast; human)
[3] = target: GPA1(1-41)-Gαi2 chimera (first 41 amino acids of yeast Gpa1 fused to amino acids 36-356 of human Gαi2) (yeast; human) (UniProt P08539)
[4] = target: GPA1(1-41)-Gαi3 (GPA1-human Gαi3 fusion construct) (yeast; human) (UniProt P08539)
rat Gαs (rat) = rat Gαs (rat) (UniProt P63095)
Sequence of rat Gαs (rat) (P63095 whole entry): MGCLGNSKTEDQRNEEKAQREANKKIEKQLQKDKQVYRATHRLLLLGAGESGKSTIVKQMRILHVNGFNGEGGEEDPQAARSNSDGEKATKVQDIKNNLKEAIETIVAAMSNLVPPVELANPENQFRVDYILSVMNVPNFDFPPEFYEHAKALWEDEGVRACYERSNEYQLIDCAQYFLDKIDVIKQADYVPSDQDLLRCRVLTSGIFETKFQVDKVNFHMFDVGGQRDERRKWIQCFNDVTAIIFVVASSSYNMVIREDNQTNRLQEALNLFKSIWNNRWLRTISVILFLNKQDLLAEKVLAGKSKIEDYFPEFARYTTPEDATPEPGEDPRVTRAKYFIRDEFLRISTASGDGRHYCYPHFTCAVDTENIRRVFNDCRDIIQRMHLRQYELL

yeast GPA1 (yeast) = target: T1, yeast GPA1 (yeast)

GTPγS binding to purified Gα (filter binding of GTPγ35S, 40 min) [1]	β-galactosidase activity (FUS1p-lacZ reporter in yeast, AGS1, galactose) (relative β-galactosidase activity) [2]	β-galactosidase activity (FUS1p-lacZ reporter in yeast, AGS1, galactose) (relative β-galactosidase activity) [3]	β-galactosidase activity (FUS1p-lacZ reporter in yeast, AGS1, galactose) (relative β-galactosidase activity) [4]	β-galactosidase activity (FUS1p-lacZ reporter in yeast, AGS1, galactose) (relative β-galactosidase activity) (rat Gαs (rat))	β-galactosidase activity (FUS1p-lacZ reporter in yeast, AGS1, galactose) (relative β-galactosidase activity) (yeast GPA1 (yeast))	Binder
25%						GST-AGS1 (N-terminal GST fusion of AGS1, expressed in yeast from the CUP1 promoter on plasmid pYEX-4T1) (protein, not shown: a dimerising Fc or GST) MKLAAMIKKMCPSDSELSIPAKNCYRMVILGSSKVGKTAIVSRFLTGRFEDAYTPTIEDFHRKFYSIRGEVYQLDILDTSGNHPFPAMRRLSILTGDVFILVFSLDNRDSFEEVQRLRQQILDTKSCLKNKTKENVDVPLVICGNKGDRDFYREVDQREIEQLVGDDPQRCAYFEISAKKNSSLDQMFRALFAMAKLPSEMSPDLHRKVSVQYCDVLHKKALRNKKLLRAGSGGGGGDPGDAFGIVAPFARRPSVHSDLMYIREKASAGSQAKDKERCVIS
	22.5	125	63.3	6.4	7.6	AGS1 (Activator of G protein Signaling, human, 281 amino acids) (protein) MKLAAMIKKMCPSDSELSIPAKNCYRMVILGSSKVGKTAIVSRFLTGRFEDAYTPTIEDFHRKFYSIRGEVYQLDILDTSGNHPFPAMRRLSILTGDVFILVFSLDNRDSFEEVQRLRQQILDTKSCLKNKTKENVDVPLVICGNKGDRDFYREVDQREIEQLVGDDPQRCAYFEISAKKNSSLDQMFRALFAMAKLPSEMSPDLHRKVSVQYCDVLHKKALRNKKLLRAGSGGGGGDPGDAFGIVAPFARRPSVHSDLMYIREKASAGSQAKDKERCVIS
